The text below walks through data of PMC2063517, “Leptospira interrogans Endostatin-Like Outer Membrane Proteins Bind Host Fibronectin, Laminin and Regulators of Complement” (PLoS ONE, 2007).

Assay [1] concerns the target murine laminin (murine). Description: ELISA; 1 µg murine laminin immobilised in microtiter wells, soluble LenA or LenB added in PBS-based binding buffer, detected by anti-polyhistidine; Kd = concentration of Len protein giving half-maximal binding; in some experiments additional NaCl or porcine heparin in the buffer (heparin also preincubated with laminin).
Assay [2] has as its target 30-kDa amino-terminal domain of fibronectin (human). Description: ELISA; human plasma fibronectin or its proteolytic fragments (70 kDa, 30 kDa NTD, 45 kDa GBD) immobilised in wells, soluble LenA or LenB added, detected by anti-polyhistidine; Kd = concentration of Len protein giving half-maximal binding.
The target in assay [3] is murine laminin (murine). Description: ELISA; data not shown: laminin immobilised, 1 µM LenB with 1 µM or 4 µM heparin in the binding buffer.
In assay [4] the target is human plasma fibronectin (intact) (human). Description: ELISA; human plasma fibronectin or its proteolytic fragments (70 kDa, 30 kDa NTD, 45 kDa GBD) immobilised in wells, soluble LenA or LenB added, detected by anti-polyhistidine; Kd = concentration of Len protein giving half-maximal binding. Conditions: both partners purified.

In the assay with murine laminin (murine) [1], “recombinant LenA (leptospiral endostatin-like protein A), L. interrogans serovar Lai (from UniProt Q8F863 1-240) (natural protein)” had a binding of 1 µM LenA with 1 µM heparin, percent of the no-heparin control of 26%; a percent reduction of binding at 200 mM NaCl against 150 mM NaCl of 49%; a percent reduction of binding at 500 mM NaCl against 150 mM NaCl of 60%.

For “recombinant LenB, L. interrogans serovar Bratislava (from UniProt A8SKK5 1-236) (natural protein)”, the Kd in assay [2] turned out to be 69.5 nM. Moreover, in the assay with murine laminin (murine) [3], the binding of 1 µM LenB with 1 µM heparin, percent of the no-heparin control came to 75% and the binding of 1 µM LenB with 4 µM heparin, percent of the no-heparin control came to 55%. Moreover, in the assay with murine laminin (murine) [1], the Kd amounted to 118 nM; the binding of 0.25 µM LenB with 50 µM heparin (laminin preincubated with 50 µM heparin), percent of the no-heparin control worked out at 25%; the percent inhibition of binding at 200 mM NaCl against 150 mM NaCl is 40%; the percent inhibition of binding at 500 mM NaCl against 150 mM NaCl worked out at 79%.

B1: recombinant LenB, L. interrogans serovar Bratislava (natural protein)
chain: MFKNIFLIFLTGSVVCILWSCGDKKEEDNSDLLLFLLNSLGSSNSAASTVVTSCKDASFCRTFVATNNGAGYDGNLGGISGADAKCAAAKSSNLTGTYKALLAAMGTREAVFVGDGSTRLVDWVLYPNKQYRRSDGTTTTFTTNANSVVTANLQNSVDVGAEKFYWIGVGNQPATFDWEVSLNCNDWNSNNAVNFAIDGTTSSNEVFAGDGATPGGAFGSHNTGCNIRLNLLCVEQ
notes: Made with the vector pET200 (Invitrogen); source: E. coli, inclusion bodies, purified in 8M urea (MagneHis nickel beads), dialyzed against PBS; dissolved into PBS after 2-3 days at 4°C
Molecule B1 had a Kd in assay [4] of 106 nM.
